The record followed here is patent publication US20250059285A1 (ARGENX, published 2025).

Experiment [1] has as its target T1, human Gal10-His (human, UniProt Q05315 2-142, limits assumed).
T1 construct: also called hGal10-His; human Gal10-His tagged; not shown: His tag
T1 sequence: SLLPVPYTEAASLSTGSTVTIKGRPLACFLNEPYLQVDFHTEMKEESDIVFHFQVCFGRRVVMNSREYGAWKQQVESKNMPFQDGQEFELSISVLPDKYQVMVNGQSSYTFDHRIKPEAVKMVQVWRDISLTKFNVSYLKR
Briefly: SPR Biacore 3000, Fab periplasmic extract on Gal10-His-coated CM5. How it is done: The binding properties of the Fabs (periplasmic extract) to human Gal10-His were analyzed by SPR with a Biacore 3000 instrument. For this purpose, the diluted periplasmic extract was applied on a CM5 chip coated with human Gal10-His. As a positive control, a 20 nM injection of the purified g7B07 clone in the human Fab backbone was included at the beginning and end of the run.
The binding capacity of the Fab periplasmic extract was analyzed by SPR technology using a Biacore 3000. Briefly, diluted periplasmic extracts were injected on CM5 chip coated with 2500 RU of Gal10-His. The amplitude of the binding (Rmax), the dissociation (off-rate) of each clone, as well as the off-rate fold change compared to the controls (g7B07 and g7B07_N53A) are indicated. Clones g20H09 and g23H09 had similar or better off rate compared to the control g7B07 (Table 10). The randomized part of the CDR2 sequence is underlined (Table 10).
A general note: In SPR one partner is held on a chip, and binding of the other changes the refractive index at the surface.

For experiment [2], the target named is T2, cynomolgus Gal10-His (WGS isoform) (cynomolgus).
T2 construct: also called cynomolgus antigen
Briefly: SPR Biacore 3000, hFab on captured cynomolgus Gal10-His (WGS); column head prints (M), the text gives nM. How it is done: (§1) The binding properties of the selected clones to human and cynomolgus Gal10 was analyzed via a capture method established on a Biacore 3000 instrument.
(§2) For this purpose, two approaches were used. In the first, two concentrations of the selected clones were applied on cynomolgus (WGS isoform) Gal10-His capture on a CM5 chip coated with a monoclonal anti-His antibody. The second approach involved a serial dilution that was applied on human or cynomolgus (WGS isoform) Gal10-His in the same set-up.

In experiment [3] the target is T1, human Gal10-His. Briefly: SPR slope against calibrators on captured Gal10-His; T0 sample. How it is done: (§3) The binding properties of the seven selected clones following two weeks of temperature stress was analysed using an optimized capture method on a Biacore 3000 instrument. The binding properties of the stressed samples were determined, compared to the calibration point, and expressed as a percentage of Relative Activity (% RA).
(§4) Briefly, a capture method was set-up on a Biacore 3000 instrument. For this purpose, a CM5 chip was coated with a monoclonal anti-His antibody (4000 RU), then a fixed concentration of the human Gal10-His (25 μg/mL) was captured on the anti-His chip before receiving duplicate injections of the calibrators, QC samples and temperature stressed samples of each clone. The slope of each injected sample was then calculated using the BIA evaluation software. Concentrations of the QC samples and temperature stressed samples were back-calculated by interpolating the obtained slopes of these samples to the calibrator curve. Obtained values were within +/−20% of the nominal concentration of the tested samples and are expressed as average relative accuracy (avg % RA) (Table 13).

Experiment [4] concerns the target T1, human Gal10-His. Briefly: SPR Biacore 3000, purified hFab (2 conc.) on Gal10-His captured by anti-His CM5. The procedure: (§5) The binding properties of the selected Fab clones to human Gal10 were analyzed via a capture method established on a Biacore 3000 instrument. Two concentrations of the selected Fab clones were tested on human Gal10-His immobilized on a CM5 chip coated with a monoclonal anti-His. As controls, the clone g7B07 and g7B07_N53A were injected at the beginning and the end of the run. Briefly, a CM5 chip was coated with a monoclonal anti-His antibody (4000 RU), then a fixed concentration of the human Gal10-His (25 μg/mL) was captured on the anti-His chip before receiving two concentrations of the clones in the human Fab backbone.

Experiment [5] has as its target T1, human Gal10-His. Briefly: SPR Biacore 3000, hFab on human Gal10-His captured by anti-His CM5. How it is done:
as §1, §2

The target of experiment [6] is T2, cynomolgus Gal10-His (WGS isoform). Put plainly: SPR Biacore 3000, hFab on cynomolgus Gal10-His (WGS) captured by anti-His CM5. How it is done:
as §1, §2

Experiment [7] addresses T1, human Gal10-His. Put plainly: SPR Biacore 3000, purified hFab on captured Gal10-His. How it is done: as §5
Experiment [8] addresses T1, human Gal10-His. Put plainly: SPR Biacore 3000, hFab on captured human Gal10-His; column head prints (M), the text gives nM. The procedure: as §1, §2
Experiment [9] addresses T1, human Gal10-His. Briefly: competition ELISA on coated Gal10-His; hFab 20 ug/mL, competitor g7B07-hFab-Biot, streptavidin-HRP. How it is done: An epitope binning analysis of the humanized Fab clones was carried out in comparison with the humanized Fab of g7B07.
For this experiment, a sub-optimal concentration of the biotinylated clone g7B07-humanized Fab was added to the Gal10 coated plate and pre-incubated with the selected clones. The percentage competition with g7B07 was then determined (Table 17). Motavizumab (Mota) in a human Fab backbone was used as a negative control (0% competition). Clone g7B07 was used as the positive control for competition and was therefore set as the 100% competition value. The anti-human specific clone 1D11 (binding to Tyrosine 69 residue) was included in the tested panel as a negative control for competition with 7B07 for Gal10 binding because it was known that clone 1D11 binds to the opposite side of Gal10 (including Tyrosine 69).
Background: In an ELISA, binding on a coated surface is turned into a signal by an enzyme label.

In experiment [10] the target is T1, human Gal10-His. Briefly: SPR slope against calibrators on captured Gal10-His; sample 2 weeks at 37 C. How it is done:
as §3, §4

B1: g20B05 (Fab, periplasmic extract) (Fab, V domains shown)
VH: EVQLLESGGGLVQPGGSLRLSCAASGFTFRSYDMSWVRQAPGKGLEWVSAIKPVGITYYADSVKGRFTISRDNSKNTLYLQMNSLRAEDTAVYYCATTHGIGTLGFGSWGQGTLVTVSS
VL: SYELTQPLSVSVALGQTARITCDGNNIGSKSAQWYQQKPGQAPVLVIYADEYRPEGIPERFSGSNSGNTATLTISRAQAGDEADYYCQVWDGSAAVFGGGTQLTVL
notes: X3 library; VH assembled by inference
As to B1, in the experiment with human Gal10-His [1], the “Fold off-rate compared to g7B07” value was 3.3 fold and the koff stood at 0.023 s⁻¹.

B2: g24F02 (human Fab) (Fab, V domains shown)
VH: EVQLLESGGGLVQPGGSLRLSCAASGFTFSSYAMSWVRQAPGKGLEWVSAINNGGGSTSYADSVKGRFTISRDNSKNTLYLQMNSLRAEDTAVYYCAKGLRVGVLGFDYWGQGTLVTVSS
VL: SYELTQPLSVSVALGQTARITCDGNNIGSKSAQWYQQKPGQAPVLVIYADEYRPEGIPERFSGSNSGNTATLTISRAQAGDEADYYCQVWDGSAAVFGGGTQLTVL
notes: Human Fab backbone (human CH1, human lambda CL); also called germlined 24F02
B2 displayed a Kd in [2] of 5.4 nM. In addition, in the experiment with human Gal10-His [3], the “% Relative Activity (RA) on Biacore” value came out at 101%. For the same molecule, in the experiment with human Gal10-His [4], the Kd came to 2 nM, the “kd-fold drop vs g7B07” value was 2.8 fold, the koff amounted to 0.0016 s⁻¹ and the kon came out at 830000 M⁻¹ s⁻¹. For the same molecule, in the experiment with human Gal10-His [5], the “Amplitude R0” value turned out to be 644 RU, the koff is 0.0016 s⁻¹ and the kon turned out to be 1.1e+06 M⁻¹ s⁻¹. Moreover, in experiment [6], the “Amplitude R0” value came out at 566 RU, the koff came to 0.0078 s⁻¹ and the kon stood at 1.4e+06 M⁻¹ s⁻¹. Further, in the experiment with human Gal10-His [7], the “fold better affinity than g7B07” value was determined as 4.7 fold. Also, the Kd with human Gal10-His [8] came out at 1.49 nM. Moreover, in the experiment with human Gal10-His [9], the “% Competition against g7B07-Biot” value came to 96.5% and the “Mean OD value” was 0.26 OD. The “% Relative Activity (RA) on Biacore” value with human Gal10-His [10] came out at 175%.

B3: g21F11 (Fab, periplasmic extract) (Fab, V domains shown)
VH: EVQLLESGGGLVQPGGSLRLSCAASGFTFRSYDMSWVRQAPGKGLEWVSAIHTPMTYYADSVKGRFTISRDNSKNTLYLQMNSLRAEDTAVYYCATTHGIGTLGFGSWGQGTLVTVSS
VL: SYELTQPLSVSVALGQTARITCDGNNIGSKSAQWYQQKPGQAPVLVIYADEYRPEGIPERFSGSNSGNTATLTISRAQAGDEADYYCQVWDGSAAVFGGGTQLTVL
notes: X4 library; VH assembled by inference
Turning to B3, in the experiment with human Gal10-His [1], the “Fold off-rate compared to g7B07” value turned out to be 5.1 fold and the koff amounted to 0.035 s⁻¹.

B4: g23E05 (Fab, periplasmic extract) (Fab, V domains shown)
VH: EVQLLESGGGLVQPGGSLRLSCAASGFTFRSYDMSWVRQAPGKGLEWVSAIRTFEHHTYYADSVKGRFTISRDNSKNTLYLQMNSLRAEDTAVYYCATTHGIGTLGFGSWGQGTLVTVSS
VL: SYELTQPLSVSVALGQTARITCDGNNIGSKSAQWYQQKPGQAPVLVIYADEYRPEGIPERFSGSNSGNTATLTISRAQAGDEADYYCQVWDGSAAVFGGGTQLTVL
notes: X6 library; VH assembled by inference
Consider B4, for which, in the experiment with human Gal10-His [1], the “Fold off-rate compared to g7B07” value came to 1.8 fold and the koff worked out at 0.013 s⁻¹.

B5: g23H11 (Fab, periplasmic extract) (Fab, V domains shown)
VH: EVQLLESGGGLVQPGGSLRLSCAASGFTFRSYDMSWVRQAPGKGLEWVSAISKMPHLTYYADSVKGRFTISRDNSKNTLYLQMNSLRAEDTAVYYCATTHGIGTLGFGSWGQGTLVTVSS
VL: SYELTQPLSVSVALGQTARITCDGNNIGSKSAQWYQQKPGQAPVLVIYADEYRPEGIPERFSGSNSGNTATLTISRAQAGDEADYYCQVWDGSAAVFGGGTQLTVL
notes: as for B4
In the case of B5, in the experiment with human Gal10-His [1], the “Fold off-rate compared to g7B07” value came to 3.6 fold and the koff was 0.025 s⁻¹.

B6: g20F04 (Fab, periplasmic extract) (Fab, V domains shown)
VH: EVQLLESGGGLVQPGGSLRLSCAASGFTFRSYDMSWVRQAPGKGLEWVSAIKHQVITYYADSVKGRFTISRDNSKNTLYLQMNSLRAEDTAVYYCATTHGIGTLGFGSWGQGTLVTVSS
VL: SYELTQPLSVSVALGQTARITCDGNNIGSKSAQWYQQKPGQAPVLVIYADEYRPEGIPERFSGSNSGNTATLTISRAQAGDEADYYCQVWDGSAAVFGGGTQLTVL
notes: X3 library
On to B6, for which, in the experiment with human Gal10-His [1], the “Fold off-rate compared to g7B07” value worked out at 2.3 fold and the koff turned out to be 0.016 s⁻¹.

B7: g23G11 (Fab, periplasmic extract) (Fab, V domains shown)
VH: EVQLLESGGGLVQPGGSLRLSCAASGFTFRSYDMSWVRQAPGKGLEWVSAIQKTIVPTYYADSVKGRFTISRDNSKNTLYLQMNSLRAEDTAVYYCATTHGIGTLGFGSWGQGTLVTVSS
VL: SYELTQPLSVSVALGQTARITCDGNNIGSKSAQWYQQKPGQAPVLVIYADEYRPEGIPERFSGSNSGNTATLTISRAQAGDEADYYCQVWDGSAAVFGGGTQLTVL
notes: as for B4
Regarding B7, in the experiment with human Gal10-His [1], the “Fold off-rate compared to g7B07” value amounted to 2.6 fold and the koff turned out to be 0.018 s⁻¹.

B8: g22C03 (Fab, periplasmic extract) (Fab, V domains shown)
VH: EVQLLESGGGLVQPGGSLRLSCAASGFTFRSYDMSWVRQAPGKGLEWVSAIKLGTFTYYADSVKGRFTISRDNSKNTLYLQMNSLRAEDTAVYYCATTHGIGTLGFGSWGQGTLVTVSS
VL: SYELTQPLSVSVALGQTARITCDGNNIGSKSAQWYQQKPGQAPVLVIYADEYRPEGIPERFSGSNSGNTATLTISRAQAGDEADYYCQVWDGSAAVFGGGTQLTVL
notes: X5 library; VH assembled by inference
As for B8, in the experiment with human Gal10-His [1], the “Fold off-rate compared to g7B07” value was 2.9 fold and the koff turned out to be 0.02 s⁻¹.

B9: g21B01 (Fab, periplasmic extract) (Fab, V domains shown)
VH: EVQLLESGGGLVQPGGSLRLSCAASGFTFRSYDMSWVRQAPGKGLEWVSAISGALTYYADSVKGRFTISRDNSKNTLYLQMNSLRAEDTAVYYCATTHGIGTLGFGSWGQGTLVTVSS
VL: SYELTQPLSVSVALGQTARITCDGNNIGSKSAQWYQQKPGQAPVLVIYADEYRPEGIPERFSGSNSGNTATLTISRAQAGDEADYYCQVWDGSAAVFGGGTQLTVL
notes: as for B3
Regarding B9, in the experiment with human Gal10-His [1], the “Fold off-rate compared to g7B07” value worked out at 3.8 fold and the koff is 0.026 s⁻¹.

B10: g21C06 (Fab, periplasmic extract) (Fab, V domains shown)
VH: EVQLLESGGGLVQPGGSLRLSCAASGFTFRSYDMSWVRQAPGKGLEWVSAIKRPWTYYADSVKGRFTISRDNSKNTLYLQMNSLRAEDTAVYYCATTHGIGTLGFGSWGQGTLVTVSS
VL: SYELTQPLSVSVALGQTARITCDGNNIGSKSAQWYQQKPGQAPVLVIYADEYRPEGIPERFSGSNSGNTATLTISRAQAGDEADYYCQVWDGSAAVFGGGTQLTVL
notes: as for B3
In the case of B10, in the experiment with human Gal10-His [1], the “Fold off-rate compared to g7B07” value was found to be 5.2 fold and the koff worked out at 0.036 s⁻¹.

One may read the koff as the first-order rate constant of dissociation. Usually Kd stands for the free concentration of one partner at which half of the binding sites on the other are occupied at equilibrium, for simple one-to-one binding. Broadly, the kon is the second-order rate constant of association.
